Laboratory results from patent US20030224453A1, “Structural models for cytoplasmic domains of transmembrane receptors” (priority 1998, published 2003).

Experiments:
[1] = tested on: filamin; assay: Affinity chromatography of cell lysates on cytoplasmic domain mimics, filamin (240 kDa) detected; format: binding; conditions: NHS-biotin-labeled human platelet lysates; result in words
From the text: To study possible influences of the structural changes induced by the Gly insertions, protein models were produced having the β1A cytoplasmic domain with one, two and three additional Gly residues inserted after the heptad-repeat motif (G2-, G3-, G4-β1A) and compared with the G1-β1A construct. As an additional control, a variant of the G4-β1A peptide was produced with a Tyr to Ala substitution in the membrane-proximal NPXY-motif (G4-β1A-Y788A) (FIG. 1). This mutation interferes with focal adhesion targeting and activation of integrins. The purified proteins were bound via their N=terminal His-Tag to a Ni^2+−resin and used in affinity chromatography experiments with lysates of NHS-biotin-labeled human platelets. Marked changes in the pattern of protein binding were observed as a consequence of the Gly insertions. Polypeptides migrating at 45, 56, 58, 140 and 240 kDa bound only to the mimics with Gly insertions. […] Using monoclonal antibodies, the 240 kDa and 45 kDa proteins were identified as filamin and actin, respectively. […] Talin bound to the G1- and G4-β1A construct but not to the Y788A-G4β1A construct. Thus, the structural changes in the model induced by the insertion of glycines into the coiled-coil motif and the integrin cytoplasmic domain sequence alter interactions of these proteins with cellular components. […]

[2] = target: T1, talin (Homo sapiens, UniProt Q9Y490); assay: Binding of resin-bound cytoplasmic domain model proteins to purified talin; design: Talin was purified from human platelets in accordance with well known procedures; from tissue; host or cells: human platelets; conditions: result in words
T1 sequence (Q9Y490 whole entry, the tested form may be a part): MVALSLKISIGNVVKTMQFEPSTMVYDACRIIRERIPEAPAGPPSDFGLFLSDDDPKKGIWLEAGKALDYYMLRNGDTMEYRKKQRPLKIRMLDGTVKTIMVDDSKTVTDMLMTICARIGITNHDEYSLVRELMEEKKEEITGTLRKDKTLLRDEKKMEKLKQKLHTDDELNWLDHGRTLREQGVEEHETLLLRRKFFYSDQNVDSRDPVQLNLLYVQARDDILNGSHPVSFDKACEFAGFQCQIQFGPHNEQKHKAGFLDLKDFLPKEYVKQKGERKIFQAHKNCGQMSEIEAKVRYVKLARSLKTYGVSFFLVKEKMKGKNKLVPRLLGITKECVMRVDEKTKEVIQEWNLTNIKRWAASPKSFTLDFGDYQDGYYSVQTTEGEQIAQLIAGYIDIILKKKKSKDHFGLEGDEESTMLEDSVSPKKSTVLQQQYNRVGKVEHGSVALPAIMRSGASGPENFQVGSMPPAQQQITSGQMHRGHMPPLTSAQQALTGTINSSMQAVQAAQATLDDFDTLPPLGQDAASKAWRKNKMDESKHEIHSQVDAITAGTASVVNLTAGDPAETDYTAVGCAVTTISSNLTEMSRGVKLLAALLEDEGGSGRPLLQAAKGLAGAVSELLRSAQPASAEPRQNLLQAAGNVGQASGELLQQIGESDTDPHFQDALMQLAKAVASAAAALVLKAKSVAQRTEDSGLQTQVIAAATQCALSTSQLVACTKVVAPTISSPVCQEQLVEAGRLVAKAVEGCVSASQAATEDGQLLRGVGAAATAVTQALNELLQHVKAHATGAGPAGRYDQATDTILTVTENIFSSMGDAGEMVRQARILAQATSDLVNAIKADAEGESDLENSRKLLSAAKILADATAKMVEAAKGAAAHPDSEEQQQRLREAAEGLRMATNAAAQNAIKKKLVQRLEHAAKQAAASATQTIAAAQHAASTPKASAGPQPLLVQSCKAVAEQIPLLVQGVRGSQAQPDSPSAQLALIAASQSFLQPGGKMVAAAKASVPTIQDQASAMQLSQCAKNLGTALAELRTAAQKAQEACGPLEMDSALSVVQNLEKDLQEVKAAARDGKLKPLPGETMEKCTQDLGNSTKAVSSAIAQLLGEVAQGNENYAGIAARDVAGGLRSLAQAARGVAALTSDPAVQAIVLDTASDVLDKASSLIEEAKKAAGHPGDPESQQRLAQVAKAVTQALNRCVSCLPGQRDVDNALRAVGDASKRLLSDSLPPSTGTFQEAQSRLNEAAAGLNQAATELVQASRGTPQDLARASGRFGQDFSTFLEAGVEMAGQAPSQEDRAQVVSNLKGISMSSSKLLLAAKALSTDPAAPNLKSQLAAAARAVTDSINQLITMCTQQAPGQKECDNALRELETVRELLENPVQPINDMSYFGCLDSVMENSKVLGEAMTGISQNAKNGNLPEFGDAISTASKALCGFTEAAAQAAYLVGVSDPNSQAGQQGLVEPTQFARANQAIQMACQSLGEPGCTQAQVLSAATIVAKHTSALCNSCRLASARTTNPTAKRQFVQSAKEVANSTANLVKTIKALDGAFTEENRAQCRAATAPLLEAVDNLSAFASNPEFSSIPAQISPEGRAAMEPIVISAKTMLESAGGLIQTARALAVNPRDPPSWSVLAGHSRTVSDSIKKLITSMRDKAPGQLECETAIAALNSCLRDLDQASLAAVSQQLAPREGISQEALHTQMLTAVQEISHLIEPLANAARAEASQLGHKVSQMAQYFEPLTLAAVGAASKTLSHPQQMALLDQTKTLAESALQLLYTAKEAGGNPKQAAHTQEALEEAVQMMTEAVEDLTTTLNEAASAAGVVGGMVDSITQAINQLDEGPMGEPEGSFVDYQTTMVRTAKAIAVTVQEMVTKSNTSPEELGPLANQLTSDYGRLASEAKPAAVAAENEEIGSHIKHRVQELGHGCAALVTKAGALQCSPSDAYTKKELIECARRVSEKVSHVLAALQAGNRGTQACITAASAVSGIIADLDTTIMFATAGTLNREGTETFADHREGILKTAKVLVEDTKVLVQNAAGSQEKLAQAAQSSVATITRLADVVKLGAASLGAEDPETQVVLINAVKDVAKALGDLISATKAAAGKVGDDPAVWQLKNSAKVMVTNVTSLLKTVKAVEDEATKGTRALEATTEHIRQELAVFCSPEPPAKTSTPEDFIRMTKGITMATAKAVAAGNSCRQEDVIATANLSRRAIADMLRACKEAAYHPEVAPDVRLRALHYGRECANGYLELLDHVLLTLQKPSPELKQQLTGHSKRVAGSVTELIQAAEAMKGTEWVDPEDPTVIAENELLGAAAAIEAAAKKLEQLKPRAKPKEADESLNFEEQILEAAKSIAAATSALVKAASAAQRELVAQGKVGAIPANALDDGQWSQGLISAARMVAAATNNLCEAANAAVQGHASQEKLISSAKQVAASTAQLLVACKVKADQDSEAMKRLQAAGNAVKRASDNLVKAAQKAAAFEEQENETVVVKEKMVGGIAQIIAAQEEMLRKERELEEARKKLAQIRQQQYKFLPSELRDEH
Description: (§1) Purified recombinant cytoplasmic domain proteins (500 μg) were dissolved in a mixture of 5 ml 20 mM Pipes, 50 mM NaCl, pH 6.8 and 1 ml 0.1 M sodium acetate, pH 3.5 and bound overnight to 80 μl of Ni^2+ saturated His-bind resin (Novagen). […] Resins were washed twice with 20 mM Pipes, 50 mM NaCl, pH 6.8, and stored at 4° C. with 0.1% sodium azide as suspensions with one volume of this buffer. Fifty microliters of such a suspension were added to 4.5 ml of cell lysates which had been diluted tenfold with buffer A containing 0.05% TRITON X-100, 3 mM MgCl2 and protease-inhibitors. After incubation overnight at 4° C., resins were washed five times with this buffer and finally heated in 50 μl of reducing sample buffer for SDS PAGE. Samples were separated on 4-20% SDS polyacrylamide gels (NOVEX) and either stained with Coomassie or transferred to Immobilon P membranes (Amersham Corp., Arlington Hts, Ill.). Membranes were blocked with TBS, 5% nonfat-mild powder and stained with streptavidin-peroxidase (VECTASTAIN) or specific antibodies. Bound peroxidase was detected with an enhanced chemiluminescence kit (Amersham).
Talin was purified from human platelets in accordance with well known procedures with an additional purification step using chromatography on phosphocellulose and stored at 1 mg/ml in 10 mM NaCl, 50% glycerol. […]

[3] = target: T2, filamin (ABP-280) (Homo sapiens, UniProt P21333); assay: Binding of resin-bound cytoplasmic domain model proteins to purified filamin; design: Human uterus filamin (ABP-280) was prepared as a 1.5 mg/ml solution; from tissue; host or cells: human uterus; conditions: result in words
Description: as §1
Target sequence in this assay (P21333 whole entry, the tested form may be a part): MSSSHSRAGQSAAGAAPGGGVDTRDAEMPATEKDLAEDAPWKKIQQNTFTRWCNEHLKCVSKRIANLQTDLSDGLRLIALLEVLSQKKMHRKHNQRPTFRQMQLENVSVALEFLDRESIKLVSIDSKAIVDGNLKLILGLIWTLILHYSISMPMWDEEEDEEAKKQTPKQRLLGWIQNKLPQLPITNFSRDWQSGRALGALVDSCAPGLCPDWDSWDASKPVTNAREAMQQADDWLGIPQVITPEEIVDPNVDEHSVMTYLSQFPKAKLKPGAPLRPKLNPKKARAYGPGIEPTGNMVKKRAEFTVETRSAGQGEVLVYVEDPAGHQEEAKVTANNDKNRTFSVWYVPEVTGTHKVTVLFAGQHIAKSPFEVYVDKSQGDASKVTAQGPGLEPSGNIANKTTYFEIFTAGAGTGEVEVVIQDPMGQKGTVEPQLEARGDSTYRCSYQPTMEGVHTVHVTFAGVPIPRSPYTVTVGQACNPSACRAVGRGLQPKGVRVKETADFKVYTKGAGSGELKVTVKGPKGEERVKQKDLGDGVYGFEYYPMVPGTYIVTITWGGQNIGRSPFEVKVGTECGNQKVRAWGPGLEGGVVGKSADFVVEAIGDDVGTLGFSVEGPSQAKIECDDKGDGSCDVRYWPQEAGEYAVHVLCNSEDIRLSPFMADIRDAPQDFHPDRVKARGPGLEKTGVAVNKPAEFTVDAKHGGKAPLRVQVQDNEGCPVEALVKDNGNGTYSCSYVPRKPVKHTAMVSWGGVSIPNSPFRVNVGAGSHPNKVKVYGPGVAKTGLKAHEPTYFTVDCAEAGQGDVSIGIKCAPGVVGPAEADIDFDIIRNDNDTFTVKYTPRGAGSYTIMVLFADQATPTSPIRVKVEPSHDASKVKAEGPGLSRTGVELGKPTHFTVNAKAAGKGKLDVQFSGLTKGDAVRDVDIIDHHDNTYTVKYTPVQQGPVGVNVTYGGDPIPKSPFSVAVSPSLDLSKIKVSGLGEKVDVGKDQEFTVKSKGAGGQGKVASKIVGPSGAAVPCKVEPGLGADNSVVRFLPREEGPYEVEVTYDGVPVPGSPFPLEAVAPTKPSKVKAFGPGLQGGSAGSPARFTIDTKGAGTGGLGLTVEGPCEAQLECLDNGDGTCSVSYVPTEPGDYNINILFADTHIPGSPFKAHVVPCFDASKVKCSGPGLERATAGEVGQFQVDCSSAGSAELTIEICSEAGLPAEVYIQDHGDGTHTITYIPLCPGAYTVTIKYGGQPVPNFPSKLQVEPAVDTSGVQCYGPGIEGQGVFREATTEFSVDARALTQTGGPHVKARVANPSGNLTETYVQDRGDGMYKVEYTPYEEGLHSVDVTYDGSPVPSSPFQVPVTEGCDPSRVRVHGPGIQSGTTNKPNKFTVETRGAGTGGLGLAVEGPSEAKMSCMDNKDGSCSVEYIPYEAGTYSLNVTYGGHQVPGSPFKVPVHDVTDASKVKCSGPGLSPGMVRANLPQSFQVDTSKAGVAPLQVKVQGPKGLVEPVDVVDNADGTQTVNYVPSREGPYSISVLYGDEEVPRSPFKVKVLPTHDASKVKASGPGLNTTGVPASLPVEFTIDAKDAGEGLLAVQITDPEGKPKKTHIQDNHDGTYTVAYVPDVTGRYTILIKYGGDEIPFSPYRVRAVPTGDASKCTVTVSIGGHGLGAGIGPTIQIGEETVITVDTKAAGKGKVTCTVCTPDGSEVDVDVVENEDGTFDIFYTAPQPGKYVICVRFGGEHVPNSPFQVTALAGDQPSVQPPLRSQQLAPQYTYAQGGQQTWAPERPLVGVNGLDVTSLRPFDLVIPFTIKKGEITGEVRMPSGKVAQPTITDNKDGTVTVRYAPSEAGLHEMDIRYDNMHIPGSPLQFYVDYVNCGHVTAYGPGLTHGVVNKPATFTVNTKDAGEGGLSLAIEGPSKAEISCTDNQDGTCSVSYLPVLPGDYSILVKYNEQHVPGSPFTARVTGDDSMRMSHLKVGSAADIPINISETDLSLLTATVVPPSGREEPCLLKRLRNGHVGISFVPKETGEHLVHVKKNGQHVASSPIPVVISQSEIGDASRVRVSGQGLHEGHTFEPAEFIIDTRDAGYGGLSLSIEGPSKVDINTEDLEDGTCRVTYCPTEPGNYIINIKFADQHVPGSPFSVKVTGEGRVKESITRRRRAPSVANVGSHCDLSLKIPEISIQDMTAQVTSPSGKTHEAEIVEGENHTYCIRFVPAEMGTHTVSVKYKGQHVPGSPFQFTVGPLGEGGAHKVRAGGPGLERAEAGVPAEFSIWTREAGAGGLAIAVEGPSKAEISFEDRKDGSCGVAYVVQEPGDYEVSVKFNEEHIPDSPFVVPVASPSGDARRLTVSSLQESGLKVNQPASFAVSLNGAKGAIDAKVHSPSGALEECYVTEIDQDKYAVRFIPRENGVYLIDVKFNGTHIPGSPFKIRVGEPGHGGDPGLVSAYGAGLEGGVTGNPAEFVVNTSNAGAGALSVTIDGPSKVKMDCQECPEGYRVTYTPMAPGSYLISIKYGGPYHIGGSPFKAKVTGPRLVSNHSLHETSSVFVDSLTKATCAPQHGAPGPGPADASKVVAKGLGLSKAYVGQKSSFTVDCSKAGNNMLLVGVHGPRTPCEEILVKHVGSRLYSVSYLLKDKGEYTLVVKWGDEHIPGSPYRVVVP
Human uterus filamin (ABP-280) was prepared as a 1.5 mg/ml solution in 0.6 M KCl, 0.5 mM ATP, 0.5 mM DTT, 10 mM imidazole, pH 7.5. For binding assays performed as described in Example 5, this solution was diluted 1/12 with buffer A, 0.05% TRITON X-100, 3 mM MgCl2, 2 mg/ml BSA, protease-inhibitors (see Example 5), omitting the 50 mM NaCl (see Example 5), and resins with bound model proteins were added. Washing was performed in this buffer without BSA and with additional 50 mM KCl.
Talin was purified from human platelets in accordance with well known procedures with an additional purification step using chromatography on phosphocellulose and stored at 1 mg/ml in 10 mM NaCl, 50% glycerol. This solution was diluted to either 87 or 17 μg/ml talin with buffer A, 0.05% TRITON X-100, 3 mM MgCl2, 2 mg/ml BSA and protease inhibitors (see Example 5, including 0.1 mM E-64) and processed as indicated in the binding assays with cell lysates. […]

[4] = target: T1, talin; assay: Affinity chromatography of cell lysates on cytoplasmic domain mimics, talin detected; format: binding; design: endogenous in cells; host or cells: human platelets (also Jurkat, HT1080, mouse C2C12 myotubes); conditions: NHS-biotin-labeled human platelet lysates; result in words
From the text: To study possible influences of the structural changes induced by the Gly insertions, protein models were produced having the β1A cytoplasmic domain with one, two and three additional Gly residues inserted after the heptad-repeat motif (G2-, G3-, G4-β1A) and compared with the G1-β1A construct. As an additional control, a variant of the G4-β1A peptide was produced with a Tyr to Ala substitution in the membrane-proximal NPXY-motif (G4-β1A-Y788A) (FIG. 1). This mutation interferes with focal adhesion targeting and activation of integrins. The purified proteins were bound via their N=terminal His-Tag to a Ni^2+−resin and used in affinity chromatography experiments with lysates of NHS-biotin-labeled human platelets. Marked changes in the pattern of protein binding were observed as a consequence of the Gly insertions. Polypeptides migrating at 45, 56, 58, 140 and 240 kDa bound only to the mimics with Gly insertions. […] Using monoclonal antibodies, the 240 kDa and 45 kDa proteins were identified as filamin and actin, respectively. […] Talin bound to the G1- and G4-β1A construct but not to the Y788A-G4β1A construct. Thus, the structural changes in the model induced by the insertion of glycines into the coiled-coil motif and the integrin cytoplasmic domain sequence alter interactions of these proteins with cellular components. Alterations of the β1A tail that block cytoskeletal interactions, such as the Y788 mutation and β1B- and β1C-splice variants also abrogate binding to talin and filamin. Consequently, the observed in vitro interactions are likely to be biologically relevant.
Human platelets were obtained by centrifugation of freshly drawn blood samples at 1000 rpm for 20 minutes and sedimentation of the resulting platelet-rich plasma at 2600 rpm for 15 minutes. They were washed twice with 0.12 M NaCl, 0.0129 M trisodium citrate, 0.03 M glucose, pH 6.5, and once in Hepes-Saline (3.8 mM Hepes, 137 mM NaCl, 2.7 mM KCl, 5.6 mM D-Glucose, 3.3 mM Na2HPO4, pH 7.3-7.4). […]

[5] = target: T1, talin; assay: densitometry of Coomassie-stained gels; purified talin on model protein resin
[6] = target: T2, filamin (ABP-280); assay: densitometry of Coomassie-stained gels; purified filamin on model protein resin

binding of purified talin compared to G4-β1A [2]	binding of purified filamin, comparison between constructs [3]	talin binding from cell lysates [4]	fold more talin bound than by the β1A model protein [5]	fold more filamin bound than by the β1A model protein [6]	Molecule	filamin (240 kDa) binding from cell lysates [1]
functionally reduced	functionally reduced	not	–	–	G4-β1A-Y788A: G4-β1A variant with Tyr to Ala substitution in the membrane-proximal NPXY-motif (protein) GSSHHHHHHSSGLVPRGSHMKLEALEGRLDALEGKLEALEGKLDALEGGGGKLLMIIHDRREFAKFEKEKMNAKWDTGENPIAKSAVTTVVNPKYEGK	suppressed the interaction with the 240 kDa
–	–	–	9 fold	–	β1D construct (G1 or G4 variant not stated) (designed binder, part only; not given: number of added glycines, part only) chain, part: GSSHHHHHHSSGLVPRGSHMKLEALEGRLDALEGKLEALEGKLDALEGKLLMIIHDRREFAKFEKEKMNAKWDTQENPIYKSPINNFKNPNYGRKAGL	–
functionally reduced	functionally reduced	–	–	–	G4-β1B: G4 model protein with β1B splice variant cytoplasmic domain (protein) GSSHHHHHHSSGLVPRGSHMKLEALEGRLDALEGKLEALEGKLDALEGGGGKLLMIIHDRREFAKFEKEKMNAKWDTVSYKTSKKQSGL	–
–	bound more filamin than G4-β1A or G4-β1D	–	–	8.4 fold	β7 construct (G1 or G4 variant not stated) (designed binder, part only; not given: number of added glycines, part only) chain, part: GSSHHHHHHSSGLVPRGSHMKLEALEGRLDALEGKLEALEGKLDALEGKLSVEIYDRREYSRFEKEQQQLNWKQDSNPLYKSAITTTINPRFQEADSPTL	–
